The target in experiment [1] is T1, Staphylocoagulase peptide SC(1-10), …, unconjugated (Staphylococcus aureus). The experiment can be described thus: ELISA: purified GMA-2105 on unconjugated …, A490. (In an ELISA, binding on a coated surface is turned into a signal by an enzyme label.)
The target of experiment [2] is Staphylocoagulase peptide SC(1-10) conjugated to ovalbumin (Staphylococcus aureus). The experiment in a line: ELISA: purified GMA-2105 on SC peptide-ovalbumin conjugate, A490.
Experiment [3] addresses T1, Staphylocoagulase peptide SC(1-10), …, …. The experiment can be described thus: ELISA: GMA-2105 F(ab) on wells coated with …, A490.
Experiment [4] deals with GMA-2105 murine anti-staphylocoagulase monoclonal antibody.

B1: GMA-2105 murine anti-staphylocoagulase monoclonal antibody (antibody, V domains shown)
VH: EVKLEESGGGLVQPGGSMKLSCAASGFTFSDAWMDWVRQSPEKGLEWVAEIRTKANNHATYYAESVKGRFTISRDDSKSSVYLQMNSLRAEDTGIYYCTNVYYGNNDVKDYWGQGTSVTVSPAS
VL: DIVMTQSQKFMSTSVGDRVSVTCKASQNVDIYVAWYQQKPGQSPKALIYSASYRFSGVPDRFTGSGSGTDFTLSISNVQSEDLAEYFCQQYNNYPYTFGGGTKLEIKRADAAPTVSIFPPSSEGRI
As a reminder, the EC50 (read off the curve) is the concentration needed to bring the measured effect to its halfway point. Lower therefore signals greater potency. For B1, the results for the concentration for a half-maximal effect (EC50 (read off the curve)) in experiment [1] and in experiment [2] were 0.05 µg/mL and 0.03 µg/mL, respectively.

B2: GMA-2105 F(ab) fragment (Fab, V domains shown)
VH: EVKLEESGGGLVQPGGSMKLSCAASGFTFSDAWMDWVRQSPEKGLEWVAEIRTKANNHATYYAESVKGRFTISRDDSKSSVYLQMNSLRAEDTGIYYCTNVYYGNNDVKDYWGQGTSVTVSPAS
VL: DIVMTQSQKFMSTSVGDRVSVTCKASQNVDIYVAWYQQKPGQSPKALIYSASYRFSGVPDRFTGSGSGTDFTLSISNVQSEDLAEYFCQQYNNYPYTFGGGTKLEIKRADAAPTVSIFPPSSEGRI
In experiment [3], B2 had a concentration giving a half-maximal response (EC50 (read off the curve)) of 0.1 µg/mL.

For the molecule IVTKDYSKES (modifications not checked) [Staphylocoagulase peptide SC(1-10), …, unconjugated], the IC50 (read off the curve) in experiment [4] worked out at 2 nM.
